Source: patent US20180155451A1 (published 2018)

T1: FcγRIIb extracellular domain with C-terminal His tag (human, UniProt P31994 43-217)
T1 construct: extracellular domain; also called 2b; FcgRIIb; not shown: His tag at the C terminus
T1 sequence (looked up): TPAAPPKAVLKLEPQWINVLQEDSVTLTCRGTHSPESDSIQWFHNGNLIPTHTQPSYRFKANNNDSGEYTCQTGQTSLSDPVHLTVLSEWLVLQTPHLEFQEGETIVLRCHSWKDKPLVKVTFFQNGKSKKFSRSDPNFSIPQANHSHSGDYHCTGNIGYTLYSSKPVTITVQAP

B1: GpH7-A5/GpH7-B3 variant V266_01G/GpL16-k0 (antibody, human IgG1, kappa)
heavy 1: not shown
heavy 2: not shown
light: DIVMTQSPLSLPVTPGEPASISCQASESLVHSNRNTYLHWYLQKPGQSPQLLIYKVSNRFSGVPDRFSGSGSGTDFTLKISRVEAEDVGVYYCSQNTHVPPTFGQGTKVEIERTVAAPSVFIFPPSDEQLKSGTASVVCLLNNFYPREAKVQWKVDNALQSGNSQESVTEQDSKDSTYSLSSTLTLSKADYEKHKVYACEVTHQGLSSPVTKSFNRGEC
notes: He Ab: mutation in the GpH7-B3 H chain only; also called He Ab
B2: GpH7-A5/GpH7-B3 variant D265_14T/GpL16-k0 (antibody, human IgG1, kappa)
heavy 1: not shown
heavy 2: not shown
light: DIVMTQSPLSLPVTPGEPASISCQASESLVHSNRNTYLHWYLQKPGQSPQLLIYKVSNRFSGVPDRFSGSGSGTDFTLKISRVEAEDVGVYYCSQNTHVPPTFGQGTKVEIERTVAAPSVFIFPPSDEQLKSGTASVVCLLNNFYPREAKVQWKVDNALQSGNSQESVTEQDSKDSTYSLSSTLTLSKADYEKHKVYACEVTHQGLSSPVTKSFNRGEC
notes: as for B1
B3: GpH7-A5/GpH7-B3 variant A327_07I/GpL16-k0 (antibody, human IgG1, kappa)
heavy 1: not shown
heavy 2: not shown
light: DIVMTQSPLSLPVTPGEPASISCQASESLVHSNRNTYLHWYLQKPGQSPQLLIYKVSNRFSGVPDRFSGSGSGTDFTLKISRVEAEDVGVYYCSQNTHVPPTFGQGTKVEIERTVAAPSVFIFPPSDEQLKSGTASVVCLLNNFYPREAKVQWKVDNALQSGNSQESVTEQDSKDSTYSLSSTLTLSKADYEKHKVYACEVTHQGLSSPVTKSFNRGEC
notes: as for B1
B4: GpH7-A5/GpH7-B3 variant A327_09D/GpL16-k0 (antibody, human IgG1, kappa)
heavy 1: not shown
heavy 2: not shown
light: DIVMTQSPLSLPVTPGEPASISCQASESLVHSNRNTYLHWYLQKPGQSPQLLIYKVSNRFSGVPDRFSGSGSGTDFTLKISRVEAEDVGVYYCSQNTHVPPTFGQGTKVEIERTVAAPSVFIFPPSDEQLKSGTASVVCLLNNFYPREAKVQWKVDNALQSGNSQESVTEQDSKDSTYSLSSTLTLSKADYEKHKVYACEVTHQGLSSPVTKSFNRGEC
notes: as for B1
B5: GpH7-A5/GpH7-B3 variant D265_03V/GpL16-k0 (antibody, human IgG1, kappa)
heavy 1: not shown
heavy 2: not shown
light: DIVMTQSPLSLPVTPGEPASISCQASESLVHSNRNTYLHWYLQKPGQSPQLLIYKVSNRFSGVPDRFSGSGSGTDFTLKISRVEAEDVGVYYCSQNTHVPPTFGQGTKVEIERTVAAPSVFIFPPSDEQLKSGTASVVCLLNNFYPREAKVQWKVDNALQSGNSQESVTEQDSKDSTYSLSSTLTLSKADYEKHKVYACEVTHQGLSSPVTKSFNRGEC
notes: as for B1
B6: GpH7-A5/GpH7-B3 variant D265_12R/GpL16-k0 (antibody, human IgG1, kappa)
heavy 1: not shown
heavy 2: not shown
light: DIVMTQSPLSLPVTPGEPASISCQASESLVHSNRNTYLHWYLQKPGQSPQLLIYKVSNRFSGVPDRFSGSGSGTDFTLKISRVEAEDVGVYYCSQNTHVPPTFGQGTKVEIERTVAAPSVFIFPPSDEQLKSGTASVVCLLNNFYPREAKVQWKVDNALQSGNSQESVTEQDSKDSTYSLSSTLTLSKADYEKHKVYACEVTHQGLSSPVTKSFNRGEC
notes: as for B1
B7: GpH7-A5/GpH7-B3 variant D265_07I/GpL16-k0 (antibody, human IgG1, kappa)
heavy 1: not shown
heavy 2: not shown
light: DIVMTQSPLSLPVTPGEPASISCQASESLVHSNRNTYLHWYLQKPGQSPQLLIYKVSNRFSGVPDRFSGSGSGTDFTLKISRVEAEDVGVYYCSQNTHVPPTFGQGTKVEIERTVAAPSVFIFPPSDEQLKSGTASVVCLLNNFYPREAKVQWKVDNALQSGNSQESVTEQDSKDSTYSLSSTLTLSKADYEKHKVYACEVTHQGLSSPVTKSFNRGEC
notes: as for B1
B8: GpH7-A5/GpH7-B3 variant D265_19Q/GpL16-k0 (antibody, human IgG1, kappa)
heavy 1: not shown
heavy 2: not shown
light: DIVMTQSPLSLPVTPGEPASISCQASESLVHSNRNTYLHWYLQKPGQSPQLLIYKVSNRFSGVPDRFSGSGSGTDFTLKISRVEAEDVGVYYCSQNTHVPPTFGQGTKVEIERTVAAPSVFIFPPSDEQLKSGTASVVCLLNNFYPREAKVQWKVDNALQSGNSQESVTEQDSKDSTYSLSSTLTLSKADYEKHKVYACEVTHQGLSSPVTKSFNRGEC
notes: as for B1
B9: GpH7-A5/GpH7-B3 variant D265_13S/GpL16-k0 (antibody, human IgG1, kappa)
heavy 1: not shown
heavy 2: not shown
light: DIVMTQSPLSLPVTPGEPASISCQASESLVHSNRNTYLHWYLQKPGQSPQLLIYKVSNRFSGVPDRFSGSGSGTDFTLKISRVEAEDVGVYYCSQNTHVPPTFGQGTKVEIERTVAAPSVFIFPPSDEQLKSGTASVVCLLNNFYPREAKVQWKVDNALQSGNSQESVTEQDSKDSTYSLSSTLTLSKADYEKHKVYACEVTHQGLSSPVTKSFNRGEC
notes: as for B1
B10: GpH7-A5/GpH7-B3 variant A327_10E/GpL16-k0 (antibody, human IgG1, kappa)
heavy 1: not shown
heavy 2: not shown
light: DIVMTQSPLSLPVTPGEPASISCQASESLVHSNRNTYLHWYLQKPGQSPQLLIYKVSNRFSGVPDRFSGSGSGTDFTLKISRVEAEDVGVYYCSQNTHVPPTFGQGTKVEIERTVAAPSVFIFPPSDEQLKSGTASVVCLLNNFYPREAKVQWKVDNALQSGNSQESVTEQDSKDSTYSLSSTLTLSKADYEKHKVYACEVTHQGLSSPVTKSFNRGEC
notes: as for B1
B11: GpH7-A5/GpH7-B3 variant A327_18N/GpL16-k0 (antibody, human IgG1, kappa)
heavy 1: not shown
heavy 2: not shown
light: DIVMTQSPLSLPVTPGEPASISCQASESLVHSNRNTYLHWYLQKPGQSPQLLIYKVSNRFSGVPDRFSGSGSGTDFTLKISRVEAEDVGVYYCSQNTHVPPTFGQGTKVEIERTVAAPSVFIFPPSDEQLKSGTASVVCLLNNFYPREAKVQWKVDNALQSGNSQESVTEQDSKDSTYSLSSTLTLSKADYEKHKVYACEVTHQGLSSPVTKSFNRGEC
notes: as for B1
B12: GpH7-A5/GpH7-B3 variant V266_20W/GpL16-k0 (antibody, human IgG1, kappa)
heavy 1: not shown
heavy 2: not shown
light: DIVMTQSPLSLPVTPGEPASISCQASESLVHSNRNTYLHWYLQKPGQSPQLLIYKVSNRFSGVPDRFSGSGSGTDFTLKISRVEAEDVGVYYCSQNTHVPPTFGQGTKVEIERTVAAPSVFIFPPSDEQLKSGTASVVCLLNNFYPREAKVQWKVDNALQSGNSQESVTEQDSKDSTYSLSSTLTLSKADYEKHKVYACEVTHQGLSSPVTKSFNRGEC
notes: as for B1
B13: GpH7-A5/GpH7-B3 variant D265_06M/GpL16-k0 (antibody, human IgG1, kappa)
heavy 1: not shown
heavy 2: not shown
light: DIVMTQSPLSLPVTPGEPASISCQASESLVHSNRNTYLHWYLQKPGQSPQLLIYKVSNRFSGVPDRFSGSGSGTDFTLKISRVEAEDVGVYYCSQNTHVPPTFGQGTKVEIERTVAAPSVFIFPPSDEQLKSGTASVVCLLNNFYPREAKVQWKVDNALQSGNSQESVTEQDSKDSTYSLSSTLTLSKADYEKHKVYACEVTHQGLSSPVTKSFNRGEC
notes: as for B1
B14: GpH7-A5/GpH7-B3 variant D265_08L/GpL16-k0 (antibody, human IgG1, kappa)
heavy 1: not shown
heavy 2: not shown
light: DIVMTQSPLSLPVTPGEPASISCQASESLVHSNRNTYLHWYLQKPGQSPQLLIYKVSNRFSGVPDRFSGSGSGTDFTLKISRVEAEDVGVYYCSQNTHVPPTFGQGTKVEIERTVAAPSVFIFPPSDEQLKSGTASVVCLLNNFYPREAKVQWKVDNALQSGNSQESVTEQDSKDSTYSLSSTLTLSKADYEKHKVYACEVTHQGLSSPVTKSFNRGEC
notes: as for B1
B15: GpH7-A5/GpH7-B3 variant D265_11K/GpL16-k0 (antibody, human IgG1, kappa)
heavy 1: not shown
heavy 2: not shown
light: DIVMTQSPLSLPVTPGEPASISCQASESLVHSNRNTYLHWYLQKPGQSPQLLIYKVSNRFSGVPDRFSGSGSGTDFTLKISRVEAEDVGVYYCSQNTHVPPTFGQGTKVEIERTVAAPSVFIFPPSDEQLKSGTASVVCLLNNFYPREAKVQWKVDNALQSGNSQESVTEQDSKDSTYSLSSTLTLSKADYEKHKVYACEVTHQGLSSPVTKSFNRGEC
notes: as for B1
B16: GpH7-A5/GpH7-B3 variant A330_01G/GpL16-k0 (antibody, human IgG1, kappa)
heavy 1: not shown
heavy 2: not shown
light: DIVMTQSPLSLPVTPGEPASISCQASESLVHSNRNTYLHWYLQKPGQSPQLLIYKVSNRFSGVPDRFSGSGSGTDFTLKISRVEAEDVGVYYCSQNTHVPPTFGQGTKVEIERTVAAPSVFIFPPSDEQLKSGTASVVCLLNNFYPREAKVQWKVDNALQSGNSQESVTEQDSKDSTYSLSSTLTLSKADYEKHKVYACEVTHQGLSSPVTKSFNRGEC
notes: as for B1
B17: GpH7-A5/GpH7-B3 variant D265_04F/GpL16-k0 (antibody, human IgG1, kappa)
heavy 1: not shown
heavy 2: not shown
light: DIVMTQSPLSLPVTPGEPASISCQASESLVHSNRNTYLHWYLQKPGQSPQLLIYKVSNRFSGVPDRFSGSGSGTDFTLKISRVEAEDVGVYYCSQNTHVPPTFGQGTKVEIERTVAAPSVFIFPPSDEQLKSGTASVVCLLNNFYPREAKVQWKVDNALQSGNSQESVTEQDSKDSTYSLSSTLTLSKADYEKHKVYACEVTHQGLSSPVTKSFNRGEC
notes: as for B1
B18: GpH7-A5/GpH7-B3 variant D265_10E/GpL16-k0 (antibody, human IgG1, kappa)
heavy 1: not shown
heavy 2: not shown
light: DIVMTQSPLSLPVTPGEPASISCQASESLVHSNRNTYLHWYLQKPGQSPQLLIYKVSNRFSGVPDRFSGSGSGTDFTLKISRVEAEDVGVYYCSQNTHVPPTFGQGTKVEIERTVAAPSVFIFPPSDEQLKSGTASVVCLLNNFYPREAKVQWKVDNALQSGNSQESVTEQDSKDSTYSLSSTLTLSKADYEKHKVYACEVTHQGLSSPVTKSFNRGEC
notes: as for B1

Key:
[1] = target: T2, FcγRIIIa extracellular domain with C-terminal His tag (human, UniProt P08637 17-208); assay: SPR (Biacore), relative binding, GpH7-A5/GpH7-B3/GpL16-k0 = 100
T2 construct: extracellular domain; also called 3a; FcgRIIIa; not shown: His tag at the C terminus
T2 sequence (P08637 17-208): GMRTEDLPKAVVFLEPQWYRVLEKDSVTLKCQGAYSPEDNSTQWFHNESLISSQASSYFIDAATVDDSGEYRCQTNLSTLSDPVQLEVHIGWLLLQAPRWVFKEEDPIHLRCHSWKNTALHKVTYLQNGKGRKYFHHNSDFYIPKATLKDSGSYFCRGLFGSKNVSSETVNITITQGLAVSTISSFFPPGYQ
Procedure: (§1) Analysis of interaction between objective antibody and the FcγR was carried out using Biacore T100 (GE Healthcare). HBS-EP+ (GE Healthcare) was used as the running buffer, and the measurement temperature was set to 25° C. Chips produced by immobilizing the antigen peptide by the amine coupling method to a Series S Sencor Chip CM5 (GE Healthcare), or alternatively, chips produced by allowing preliminarily biotinylated antigen peptides to interact with and immobilize onto a Series S Sensor Chip SA (certified) (GE Healthcare) were used. Antibodies of interest were captured onto an antigen peptide-immobilized chip, and allowed to interact to each FcγR diluted with running buffer. To regenerate and repeatedly use the chip, the antibodies captured on the chip were washed off by reacting 10 mM glycine-HCl, pH 1.5.
(§2) The FcγR-binding activity of each antibody was assessed primarily using as an indicator the FcγR-binding activity and dissociation constant for FcγR.

[2] = target: T1, FcγRIIb extracellular domain with …; assay: as above
Procedure: as §1, §2

Row | Binder | He/Con_3a [1] | He/Con_2b [2]
1 | B1 | 24 % of control | 51.5 % of control
2 | B2 | 4.3 % of control | 16 % of control
3 | B3 | 42.4 % of control | 127 % of control
4 | B4 | 83.7 % of control | 172 % of control
5 | B5 | 0.6 % of control | 3.2 % of control
6 | B6 | 3.2 % of control | 15 % of control
7 | B7 | -0.8 % of control | 1.3 % of control
8 | B8 |  | 33.4 % of control
9 | B9 | 3.9 % of control | 11.3 % of control
10 | B10 | 68.6 % of control | 140 % of control
11 | B11 | 61.1 % of control | 113 % of control
12 | B12 |  | 71.9 % of control
13 | B13 | 2.6 % of control | 10 % of control
14 | B14 | 0 % of control | 4.6 % of control
15 | B15 | 2.5 % of control | 14.9 % of control
16 | B16 | 89.1 % of control | 104 % of control
17 | B17 | 0 % of control | 3.2 % of control
18 | B18 | 20.1 % of control | 38.2 % of control
